Assay results reported in the supplement of paper PMC9732359.
± gives the uncertainty stated by the source.

Test: protein stability index of a GFP-peptide fusion (yeast GPS) (PSI 1-4); higher = more stable; sorted into four equal gates, so the index is relative within each strain
Outline: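 Yeast carrying a pooled library were grown to mid-log phase in leucine-free medium. Each library plasmid expresses Cherry and has a tiled 17-residue yeast protein peptide fused downstream of GFP. Cells were sorted into four equal gates by GFP/Cherry ratio, and plasmids from each gate were PCR-amplified, Illumina-sequenced and assigned to strains by barcode. Summing, across gates, the read frequency times the gate number gave each peptide's protein stability index.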

Sequence	protein stability index (doa10∆)	protein stability index (pdr5∆)	protein stability index (san1∆)	protein stability index (ubr1∆)
LHVPNLQPPKTSSRGRD [SMC4]	2.44 ± 0.044	2.52 ± 0.043	2.29 ± 0.054	2.18 ± 0.039
LIAHQRSAWNNNNDNDA [GRR1]	2.25 ± 0.049	2.65 ± 0.039	2.62 ± 0.05	2.65 ± 0.039
LIDSLENHLLVMKQVET [PRP28]	2.49 ± 0.11	2.19 ± 0.073	1.69 ± 0.19	2.06 ± 0.063
LIECLLSKVAALSGNEG [RPB2]	1.47 ± 0.079	1.74 ± 0.098	1.89 ± 0.11	1.27 ± 0.08
LIELKSDLLVAPPLENE [YML103C/NUP188]	2.41 ± 0.046	2.18 ± 0.052	2.31 ± 0.077	2.19 ± 0.05
LIEYMENDAKKSKGDVD [NUT1]	3.05 ± 0.11	3.1 ± 0.079	3.1 ± 0.08	3.03 ± 0.058
LIGAATKFKGGKRQLMK [SEC65]	1.64 ± 0.1	2.03 ± 0.084	2.14 ± 0.11	1.93 ± 0.14
LILILVISFGQPKLNPM [SWI1]	1.68 ± 0.054	1.61 ± 0.042	1.78 ± 0.092	2.09 ± 0.04
LIMALLQFRPAPMYILD [SMC2]	2.47 ± 0.15	1.12 ± 0.059	1.32 ± 0.26	1.06 ± 0.046
LIQKGYLQRGDDGESYA [CDC53]	3.68 ± 0.15	2.68 ± 0.1	3.34 ± 0.065	3.12 ± 0.066
LISLKLLTFEVTQNVLG [SRB8]	1.73 ± 0.078	1.46 ± 0.072	1.28 ± 0.25	1.69 ± 0.084
LITQLDGFDPRGNIKVM [RPT1]		3.31 ± 0.22	3.15 ± 0.09	3.32 ± 0.21
LITTNSVEEVILERAYK [SNF2]	2.37 ± 0.092	1.85 ± 0.063	2.18 ± 0.09	1.95 ± 0.031
LIVDVKQQGVGLPTDAY [RPN8]	2.07 ± 0.25	2.77 ± 0.25	1.28 ± 0.26	
LKAAFVAIGNTYGFLTP [RPS2]	2.13 ± 0.072	2.27 ± 0.048	2.07 ± 0.095	2.55 ± 0.042
LKDIEARIKEKAGVKES [RPT1]	2.38 ± 0.27	3.42 ± 0.19	3.22 ± 0.11	3.31 ± 0.081
LKENTYVMERPKNVPTS [YDL116W/NUP84]	1.81 ± 0.1	2.13 ± 0.12	2.79 ± 0.15	2.96 ± 0.093
LKESIKNSTSSMTAVPK [RPN1]	3.02 ± 0.096	3.31 ± 0.1	3.14 ± 0.1	3.2 ± 0.084
LKGEIEDYPMSSEIKIY [SIR4]	1.33 ± 0.15		3.25 ± 0.18	1.64 ± 0.2
LKHKSICSCVNRGVKLE [RPP1]	2.31 ± 0.068	2.75 ± 0.051	2.57 ± 0.068	2.68 ± 0.034
LKHLEEMGKLRERDITS [RRI2]	2.76 ± 0.079	2.58 ± 0.11	2.55 ± 0.15	3.16 ± 0.068
LKHTDYWYEQDSAKEWP [RPB3]	3.18 ± 0.15	3.31 ± 0.13	2.36 ± 0.21	
LKIFLYLESLFAKQVDV [IRR1]	2.51 ± 0.093	2.19 ± 0.073	2.33 ± 0.1	2.53 ± 0.049
LKIFQEQSLEVFIFPTS [SRB8]	2.12 ± 0.083	1.96 ± 0.054	2.29 ± 0.056	2.28 ± 0.041
LKISLIQIFRAHLWQKI [PRP8]	1.17 ± 0.077	1.18 ± 0.055	1.13 ± 0.13	1.12 ± 0.057
LKKFLQEKMDPNNSRDD [IRR1]	3.11 ± 0.081	3.12 ± 0.068	3.19 ± 0.064	3.09 ± 0.07

Sequence	protein stability index (doa10∆)	protein stability index (pdr5∆)	protein stability index (san1∆)	protein stability index (ubr1∆)
LKKKYQIILDRFAPDNQ [SIR3]	1.9 ± 0.09	1.85 ± 0.082	1.68 ± 0.13	1.74 ± 0.062
LKKSEEIINNKTSSQTS [YMR153W/NUP53]	3.08 ± 0.12	3.4 ± 0.15	3.03 ± 0.13	3.19 ± 0.069
LKLEKLNTNRTFAQEKL [SMC3]	2.84 ± 0.07	3.08 ± 0.069	2.83 ± 0.098	2.93 ± 0.057
LKLLKENIIQMEMIENR [FAS1]	1.87 ± 0.065	2.27 ± 0.094	1.32 ± 0.12	1.93 ± 0.074
LKNFLSYESLKKRKIHN [MCD1]	1.55 ± 0.038	1.46 ± 0.039	2.12 ± 0.048	1.59 ± 0.034
LKNIMKVSDPYVPTRNT [RPN4]	3.07 ± 0.15	2.67 ± 0.18	2.78 ± 0.071	2.59 ± 0.11
LKNKYESYDAALSLHRE [FAS2]	3.181 ± 0.019	3.134 ± 0.016	3.083 ± 0.014	3.034 ± 0.014
LKNSIMSFIFPSYAERQ [YML031W/NDC1]	2.51 ± 0.075	2.54 ± 0.083	2.38 ± 0.079	2.4 ± 0.067
LKQPPFQITLSSDDLQN [SSN8]	2.23 ± 0.059	2.31 ± 0.077	2.34 ± 0.064	2.35 ± 0.085
LKRRQVIEQCYLKFIPL [SRB8]	1.91 ± 0.045	1.98 ± 0.048	1.52 ± 0.082	1.83 ± 0.032
LKSAENSGKQQYYRGLP [SWP82]	2.25 ± 0.1	2.24 ± 0.067	2.25 ± 0.21	2.75 ± 0.068
LKTNFETEWNLQTLAAD [RPB11]	2.79 ± 0.13	2.91 ± 0.11	2.53 ± 0.079	2.67 ± 0.1
LKVDPDMLTWVDSNLPD [RPC40]	3.02 ± 0.082	3.13 ± 0.062	2.54 ± 0.16	3.26 ± 0.073
LKVNVTLDNPLLVDKDA [YJL039C/NUP192]	3.02 ± 0.077	2.93 ± 0.065	3 ± 0.041	2.7 ± 0.051
LKWKKGIRGKLVTIEGA [SMC1]		3.31 ± 0.24	3.31 ± 0.12	
LLAEEEELILPNTKDAM [PRP8]	3.16 ± 0.089	3.44 ± 0.072	3.36 ± 0.063	3.04 ± 0.079
LLAHKVADEEANIELTW [RPC37]	1.49 ± 0.074		1.59 ± 0.14	1.74 ± 0.1
LLARVIQMNNSLQNNLQ [SNF11]	3.01 ± 0.11	2.46 ± 0.097	2.36 ± 0.084	2.06 ± 0.086
LLDFNTALKQYEKELMG [RPN6]	3.14 ± 0.25	3.33 ± 0.19	3.32 ± 0.25	3.12 ± 0.13
LLEISCKQWEISNMLKK [CSI1]	1.5 ± 0.052	1.58 ± 0.048	1.75 ± 0.077	1.5 ± 0.046
LLEQKKSIINSQRPGAR [ITC1]		2.67 ± 0.2	2.47 ± 0.23	2.62 ± 0.11
LLETITYVLNTWTNSKI [YML103C/NUP188]	1.85 ± 0.05	2.21 ± 0.05	2.14 ± 0.066	2.29 ± 0.036
LLFAINSYQPSPFFVLD [SMC1]	2.16 ± 0.06	2 ± 0.078	2.23 ± 0.082	2.57 ± 0.044
LLFPKSTIVNLAREVPQ [DPB4]	1.77 ± 0.14	2.24 ± 0.25	1.72 ± 0.18	1.94 ± 0.14
LLGARHYTPAVDLWSVG [SSN3]	1.29 ± 0.19	1.15 ± 0.19		
LLGYTGIPTDKGPRFRK [PRE8]	2.81 ± 0.18	3.02 ± 0.14	2.66 ± 0.066	2.98 ± 0.11
